According to patent US20240024432A1 (DENALI THERAPEUTICS, published 2024):

T1: cynomolgus transferrin receptor (TfR) ectodomain (ECD) (cynomolgus, UniProt Q5RDH6 121-760 (Pongo abelii entry), biotinylated where captured on streptavidin)
T1 construct: also called cyno TfR; cynoTfR; not shown: C-terminal cleavable His- and Avi-tags
T1 chain: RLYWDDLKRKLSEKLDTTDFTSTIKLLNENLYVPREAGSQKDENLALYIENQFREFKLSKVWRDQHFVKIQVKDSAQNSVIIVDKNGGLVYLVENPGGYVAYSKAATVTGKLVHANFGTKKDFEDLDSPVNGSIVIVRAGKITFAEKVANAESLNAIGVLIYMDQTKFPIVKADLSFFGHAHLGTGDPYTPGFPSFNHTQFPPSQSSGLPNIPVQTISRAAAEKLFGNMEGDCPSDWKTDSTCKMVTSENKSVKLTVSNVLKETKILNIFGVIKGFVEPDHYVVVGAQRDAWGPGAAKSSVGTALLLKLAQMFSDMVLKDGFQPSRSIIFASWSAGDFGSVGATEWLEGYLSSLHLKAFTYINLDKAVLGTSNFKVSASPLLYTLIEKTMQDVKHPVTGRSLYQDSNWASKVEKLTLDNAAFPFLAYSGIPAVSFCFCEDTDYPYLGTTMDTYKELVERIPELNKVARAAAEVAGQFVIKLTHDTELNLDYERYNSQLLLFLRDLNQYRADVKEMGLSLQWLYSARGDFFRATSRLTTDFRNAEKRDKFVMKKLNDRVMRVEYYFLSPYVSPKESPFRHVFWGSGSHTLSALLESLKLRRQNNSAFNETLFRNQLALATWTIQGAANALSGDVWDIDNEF


Columns and labels:
[1] = target: T1, cynomolgus transferrin receptor (TfR) …; assay: yeast surface display flow cytometry; yeast-displayed clone stained with 250 nM biotinylated cyno TfR, neutravidin-AF647; median fluorescence intensity
Procedure: (§1) For each clone, two million cells were washed three times in PBS+0.5% BSA at pH 7.4. […] Cells were stained with nuetravidin-Alexafluor647 (AF647) for 30 minutes at 4° C., then washed twice again. Expression was measured using anti-c-myc antibody with anti-chicken-Alexfluor488 (AF488) secondary antibody. Cells were resuspended, and median fluorescence intensity (MFI) of AF647 and AF488 was measured on a BD FACS CantoII. MFI was calculated for the TfR-binding population for each population and plotted with human TfR, cyno TfR, or control binding (FIG. 44).

[2] = target: T2, human transferrin receptor (TfR) ectodomain (ECD) (human, UniProt P02786 121-760, biotinylated where captured on streptavidin); assay: yeast surface display flow cytometry; yeast-displayed clone stained with 250 nM biotinylated human TfR, neutravidin-AF647; median fluorescence intensity
T2 construct: also called human TfR; huTfR; not shown: C-terminal cleavable His- and Avi-tags
Procedure: as §1

Binder | binding result [1] | binding result [2]
3.2-14 (designed binder, also called CH3C.3.2-14) modified Fc polypeptide displayed on yeast (c-Myc tagged): PCPAPELLGGPSVFLFPPKPKDTLMISRTPEVTCVVVDVSHEDPEVKFNWYVDGVEVHNAKTKPREEQYNSTYRVVSVLTVLHQDWLNGKEYKCKVSNKALPAPIEKTISKAKGQPREPQVYTLPPSRDELTKNQVSLTCLVKGFYPSDIAVEWESLGHVWVGVKTTPPVLDSDGSFFLYSKLTVPKSTWQQGWVFSCSVMHEALHNHYTQKSLSLSPGK | binds | binds
3.2-1 (designed binder, also called CH3C.3.2-1) modified Fc polypeptide displayed on yeast (c-Myc tagged): PCPAPELLGGPSVFLFPPKPKDTLMISRTPEVTCVVVDVSHEDPEVKFNWYVDGVEVHNAKTKPREEQYNSTYRVVSVLTVLHQDWLNGKEYKCKVSNKALPAPIEKTISKAKGQPREPQVYTLPPSRDELTKNQVSLTCLVKGFYPSDIAVEWESLGHVWVNFKTTPPVLDSDGSFFLYSKLTVPKSTWQQGWVFSCSVMHEALHNHYTQKSLSLSPGK | binds | binds
3.2-5 (designed binder, also called CH3C.3.2-5) modified Fc polypeptide displayed on yeast (c-Myc tagged): PCPAPELLGGPSVFLFPPKPKDTLMISRTPEVTCVVVDVSHEDPEVKFNWYVDGVEVHNAKTKPREEQYNSTYRVVSVLTVLHQDWLNGKEYKCKVSNKALPAPIEKTISKAKGQPREPQVYTLPPSRDELTKNQVSLTCLVKGFYPSDIAVEWESLGHVWVDQKTTPPVLDSDGSFFLYSKLTVPKSTWQQGWVFSCSVMHEALHNHYTQKSLSLSPGK | binds | binds
3.2-17 (designed binder, also called CH3C.3.2-17) modified Fc polypeptide displayed on yeast (c-Myc tagged): PCPAPELLGGPSVFLFPPKPKDTLMISRTPEVTCVVVDVSHEDPEVKFNWYVDGVEVHNAKTKPREEQYNSTYRVVSVLTVLHQDWLNGKEYKCKVSNKALPAPIEKTISKAKGQPREPQVYTLPPSRDELTKNQVSLTCLVKGFYPSDIAVEWESLGHVWVGTKTTPPVLDSDGSFFLYSKLTVPKSTWQQGWVFSCSVMHEALHNHYTQKSLSLSPGK | binds | binds
3.4-19 (designed binder, also called CH3C.3.4-19) modified Fc polypeptide displayed on yeast (c-Myc tagged): PCPAPELLGGPSVFLFPPKPKDTLMISRTPEVTCVVVDVSHEDPEVKFNWYVDGVEVHNAKTKPREEQYNSTYRVVSVLTVLHQDWLNGKEYKCKVSNKALPAPIEKTISKAKGQPREPQVYTLPPSRDELTKNQVSLTCLVKGFYPSDIAVEWESWGHVWSTYKTTPPVLDSDGSFFLYSKLTVPKSNWQQGYVFSCSVMHEALHNHYTQKSLSLSPGK | binds | binds
3.4-1 (designed binder, also called CH3C.3.4-1) modified Fc polypeptide displayed on yeast (c-Myc tagged): PCPAPELLGGPSVFLFPPKPKDTLMISRTPEVTCVVVDVSHEDPEVKFNWYVDGVEVHNAKTKPREEQYNSTYRVVSVLTVLHQDWLNGKEYKCKVSNKALPAPIEKTISKAKGQPREPQVYTLPPSRDELTKNQVSLTCLVKGFYPSDIAVEWESWGFVWSTYKTTPPVLDSDGSFFLYSKLTVPKSNWQQGFVFSCSVMHEALHNHYTQKSLSLSPGK | binds | binds
3.2-3 (designed binder, also called CH3C.3.2-3) modified Fc polypeptide displayed on yeast (c-Myc tagged): PCPAPELLGGPSVFLFPPKPKDTLMISRTPEVTCVVVDVSHEDPEVKFNWYVDGVEVHNAKTKPREEQYNSTYRVVSVLTVLHQDWLNGKEYKCKVSNKALPAPIEKTISKAKGQPREPQVYTLPPSRDELTKNQVSLTCLVKGFYPSDIAVEWESLGHVWVEQKTTPPVLDSDGSFFLYSKLTVPKSTWQQGWVFSCSVMHEALHNHYTQKSLSLSPGK | binds | binds
3.2-24 (designed binder, also called CH3C.3.2-24) modified Fc polypeptide displayed on yeast (c-Myc tagged): PCPAPELLGGPSVFLFPPKPKDTLMISRTPEVTCVVVDVSHEDPEVKFNWYVDGVEVHNAKTKPREEQYNSTYRVVSVLTVLHQDWLNGKEYKCKVSNKALPAPIEKTISKAKGQPREPQVYTLPPSRDELTKNQVSLTCLVKGFYPSDIAVEWESLGHVWVHTKTTPPVLDSDGSFFLYSKLTVPKSTWQQGWVFSCSVMHEALHNHYTQKSLSLSPGK | binds | binds
3.2-19 (designed binder, also called CH3C.3.2-19) modified Fc polypeptide displayed on yeast (c-Myc tagged): PCPAPELLGGPSVFLFPPKPKDTLMISRTPEVTCVVVDVSHEDPEVKFNWYVDGVEVHNAKTKPREEQYNSTYRVVSVLTVLHQDWLNGKEYKCKVSNKALPAPIEKTISKAKGQPREPQVYTLPPSRDELTKNQVSLTCLVKGFYPSDIAVEWESLGHVWVNQKTTPPVLDSDGSFFLYSKLTVPKSTWQQGWVFSCSVMHEALHNHYTQKSLSLSPGK | binds | binds
CH3C.35 (designed binder) modified Fc polypeptide displayed on yeast (c-Myc tagged): PCPAPELLGGPSVFLFPPKPKDTLMISRTPEVTCVVVDVSHEDPEVKFNWYVDGVEVHNAKTKPREEQYNSTYRVVSVLTVLHQDWLNGKEYKCKVSNKALPAPIEKTISKAKGQPREPQVYTLPPSRDELTKNQVSLTCLVKGFYPSDIAVEWESYGTEWSSYKTTPPVLDSDGSFFLYSKLTVTKSEWQQGFVFSCSVMHEALHNHYTQKSLSLSPGK | binds | binds
3.4-26 (designed binder, also called CH3C.3.4-26) modified Fc polypeptide displayed on yeast (c-Myc tagged): PCPAPELLGGPSVFLFPPKPKDTLMISRTPEVTCVVVDVSHEDPEVKFNWYVDGVEVHNAKTKPREEQYNSTYRVVSVLTVLHQDWLNGKEYKCKVSNKALPAPIEKTISKAKGQPREPQVYTLPPSRDELTKNQVSLTCLVKGFYPSDIAVEWESWGTVWGTYKTTPPVLDSDGSFFLYSKLTVPKSNWQQGYVFSCSVMHEALHNHYTQKSLSLSPGK | binds | binds
3.1-3 (designed binder, also called CH3C.3.1-3) modified Fc polypeptide displayed on yeast (c-Myc tagged): PCPAPELLGGPSVFLFPPKPKDTLMISRTPEVTCVVVDVSHEDPEVKFNWYVDGVEVHNAKTKPREEQYNSTYRVVSVLTVLHQDWLNGKEYKCKVSNKALPAPIEKTISKAKGQPREPQVYTLPPSRDELTKNQVSLTCLVKGFYPSDIAVEWESLGHVWVATKTTPPVLDSDGSFFLYSKLTVPKSTWQQGWVFSCSVMHEALHNHYTQKSLSLSPGK | binds | binds
